Experimental data: the DeepSol protein solubility set

Test: soluble on expression in E. coli; label from the status in PepcDB or PDB records

Sequence | soluble on expression in E. coli
MSLTRPPALSDVPDAAALPAVTAVEAMHCRIPFPSPLQLGKVHMTHRDYVLVRLLLADGGTGHAIGFERGMPLLDLVTRVAPFYVGRSPAMRAAARRAAEAATPPARAVLMRGISLLDIAMWDALARNKGLPLWALLGGARRRVPVMPVVGYGASAPAVAEQCRDLAGRGFRTVKVMIDGSDLAADAALLDAVRKALPDEVAFGIDAHWSWTTIADAMPTCRRAEELGAIFIEDPFLPQQWRTIAELQTQLRVPLAVGEDVIDRYGFRDLAEAARILRVDASVSGGVTGAIEALHLATIMDREVIPHVFPALHGQLAAAFPAARCVEMILPEVGADPVDRLFAEEARIEGGDLLVSETPGAAIAFDWDKARDFALRSERVGEGHHHHHH | soluble
MCAKIALLLVLVGAASAAVLPDKFYGTFDLDHSENFDEYLTAKGYGWFTRKLVTFATFKKVFTKTSNKNLFDYSNLTSKKDVHYKNVQLGKAFQGEGLDSTKHEITFTLKDGHLFEHHKPLEGGDAKEETYEYLFDKEFLLVRMSFNGVEGRRFYKRLP | not soluble
MILKTTLELVIDVKNNEKKIRTHSWKTKKIPPKKGEVSGQKLMVEKKSSKIFIENLKCQGNSAKNIFVFHLDLLHIKKLKNLNISMSSTDPILDISFDKPVYYPGDNMKLTVSVDTKRPLNARSVMFRCRGFRNRTVSFLNKYGIAWICKDGKNELPVGRLEQKFQFELGKDCPPTYKDGKIIYKVRLEIDQPWSRPLFIEKEFKMVHKLADQKMSQVMTYTSSPRFDALFSNGQPTFKVTMPKFTLYPGETTEFKLEVENHSSSTVKKIYAELEAEPFPLYHIYGNTKAKGKMHVLVAPYSTQKFTIPFTIPTDLTASFHTCGSSLKYTMKFGLVTDSWLTTDPALALVVSIGELESEEKKDEALKTPPPPPYTA | not soluble
GPGSMSKLISDAIAAEDASKWNTSYELYPPRSEKAEEDMMKVLVPNFMHQSPVFLDLTWGAGGRTSGTTMRLCKDLQHAHPDTPINMHITCTNTPKGLIKETLEFAKTHGIRNILALRGDPPSGEEFQVDPDGFACARDLVRYIRDTYGDYFCVSVAGYPEGHPSRIAENGTISHEDHQKELEYLKEKVDAGASFIITQLFYDASLYVKFVKRCREVGITVPILAGLLPITTYAGFVRMVSLCKTSVPSDVKKRVEELKENPDGLKEYGVEQCVQMIECIRASGLDYHHLHFYTLNNSAQIFKILKRLNALVE | soluble
MGSDKIHHHHHHMTAPTAQSMQAQPIHARLMNGEVLSQDDATAFMREVMSGDMSGVRMAAALAALRVRGETPEEIAGFAQAMRESAVTVKVRPRDVLMDVVGTGGDGAHTFNISTTTAFVLAGAGVPIAKHGNRAASSRAGSADVLEALGVNLDASPEVIQEAIDTLGVGFMFARNYHPALRHAAPVRSDLAARTVFNILGPLSNPAGATHLVVGVFRADLTRTLAEALRHLGAKGATVVYGDGLDEFTVCGPNTVSGLRDGEIIDRTMHPEEFGVDLHPKTAIVGGSPAENAEITHALLTGGGTPAQKDIVALNAGAALRTAGRVGTIREGVEQAREVMKGGQGWEMLQKYGALTKR | not soluble
MGHHHHHHSHMAAGTLYTYPENWRAFKALIAAQYSGAQVRVLSAPPHFHFGQTNRTPEFLRKFPAGKVPAFEGDDGFCVFESNAIAYYVSNEELRGSTPEAAAQVVQWVSFADSDIVPPASTWVFPTLGIMHHNKQATENAKEEVRRILGLLDAYLKTRTFLVGERVTLADITVVCTLLWLYKQVLEPSFRQAFPNTNRWFLTCINQPQFRAVLGEVKLCEKMAQFDAKKFA | not soluble
SKFGKSLSNQIEQTLPEWQDKFLSYKELKKRLKLIGSKTADRPVKRLRLDEFSVGISKEEINFIQLLEDELEKFNNFFVEKEEEYIIRLKEFRDRIAKAKDSMEKMIKIRKEIVDFHGEMVLLENYSALNYTGLVKILKKYDKRTGDLMRLPFIQKVLQQPFYTTDLLFKLVKESEAMLDQIFPANETESEIIQAELSEHKFMESLHMKSTIAALRVLKEIRSGSSTVSVFSLPPLQLNGLDETWKKIPLLEQEAK | soluble
MPEVRAERYIPAPPERVYRLAKDLEGLKPYLKEVESLEVVAREGARTRSRWVAVAMGKKVRWLEEEEWDDENLRNRFFSPEGDFDRYEGTWVFLPEGEGTRVVLTLTYELTIPIFGGLLRKLVQKLMQENVESLLKGLEERVLAASS | soluble
MKVGFFLLKFPLSSETFVLNQITAFIDMGFEVEIVALQKGDTQNTHVAWTKYNLAARTRWLQDEPTGKVAKLRHRASQTLRGIHRKNTWQALNLKRYGAESWNLILSAICGQVATPFRADVFIAHFGPAGVTAAKLRELGVIHGKIATIFHGIDISSREVLNHYTPEYQQLFRRGDLMLPISDLWAGRLQKMGCPREKIAVSRMGVDMTRFSPRPVKAPATPLEIISVARLTEKKGLHVAIEACRQLKEQGVAFRYRILGIGPWERRLRTLIEQYQLEDVVEMPGFKPSHEVKAMLDDADVFLLPSVTGADGDMEGIPVALMEAMAVGIPVVSTLHSGIPELVEADKSGWLVPENDARALAQRLAAFSQLDTDELAPVVKRAREKVEHDFNQQVINRELASLLQAL | not soluble
GPGSMETFRERTLANRYQPRQHLPPEFPGVLKEYAREVLREQPEDILQWSANYFKRLAREMDAKPAGEHRMTAPALPHLESRPNTREEEEEEYGERLQQYIDMFVEHDSENNGVLPVKAIKEALLKSYGLTLPQALYVLTATQLVEKEPVNYAEFACESFPALRFVWSTEHNFQVSNREDTTVHGLSRIDVQQEFLKLLRFADRSDTSLLSIDQYMDVLRCAPYHLTTRDLRILRVEAELNERHEVNYEEELLHIFDRLLLAEQFAQLDSDD | soluble
MVHDTFMKMPEVRRRRQPTHVLVAGGNQGLGNMTAFLRAARTSTLFRYSVLCGANKQLYHEIASWQLPHIRPLPYINSPEEMNQLYDEADAVITKPGGVTISELLHKRIPIFTIDCLPGQERINWQYLRRNGLIYHLAEPGNGERKMIRLLTDDVEKNRFFRRVSDYFAGVEKTGLEHHHHHH | not soluble
GMSEAPHLTFDLDTPGVSTGHLVVPKGADCEALSLPVFSCNRGEGPSLLITGGNHGNELQGPILARRLVKWLPEAQRCGRIIIVPEINPLAVQAWTRNTPIDGKNLNRVFPGRSDGSVSERIADAISRLLLPVVDTVLDLHSFGPTWDCAPSIISHPIADIDQMTKTVSISKAFKLPVTLLWEHNETDGMFDTLVHRQGKTFICTEFGGGVVSAEALTIYEAGVRNGLIALGLVKGKAEYPTFRQQKTGQTLETTSSDQLKSPSPGIFEPRCSVMDEVEQGDVVGVLHPMGSLSAASIDIRAQSKSTVFAIRSAMYVQGNEEVAILARPLAR | soluble
MPKIKRVKKGKKLKPNVMIFCEGETEEAYLRLIKRKYSAVNIKSKLKVKTCRRQGEALVEYAVSCIRSMGKAERDNYDLFYVMYDKDEQTTESIENAVRCAQRHRPEIKTIFSNECFELWLLLHFEEVNRYMTRENLYGRLEKVLHLKDSYRNFKGAEVCKYLEEKVAIAFQNTNKNWLSPLEEMKINENPYTNFPKELCEMLAQKEVDF | not soluble
MTENTLDPAADLLERLGDKRFRTILADPPWQFQNRTGKMAPEHKRLNRYGTMSLEAIAGLPVERLTADTAHLYLWVPNALLLEGLKVMEAWGFTYKTNLVWHKIRKDGGPDGRGVGFYFRNVTELVLFGVRGKNARTLAAGRRQVNFLATRKREHSRKPDEMYGIIESCSPGPYLELFARGARDRWSVWGNEADENYYPRWNTYANHSQAEICPFEAAALEHHHHHH | soluble
MTETIKVSESLELHAVAENHVKPLYQLICKNKTWLQQSLNWPQFVQSEEDTRKTVQGNVMLHQRGYAKMFMIFKEDELIGVISFNRIEPLNKTAEIGYWLDESHQGQGIISQALQALIHHYAQSGELRRFVIKCRVDNPQSNQVALRNGFILEGCLKQAEFLNDAYDDVNLYARIIDSQ | soluble
MEEMRDNDVPVQQALFDMGPDEEVGYRVPIACQVAGITYRQLDYWARTKLVEPTIRTARGSGSQRLYSFKDILVLKIVKRLLDTGISLQNIRLAVDKLRNRGVDDLAEITLVSDGTTVYECRSNEEVIDLLGGGQGVFGIAVPGIVRELTGTISSFPSEKISDFLSNSPAAGGIDELAARRLRKTS | not soluble
MKNNADFAYQAVYRYLVQLVDQGQGESALKMPSLRHLAQRLRVSISTVQSAYSLLEKEGRIYSVAKSGYYSAPRSAAIEVRARFDSDGDLLQMHHYYARRSGMSLLSSDAPTLLQAQESPLLAMEHELVRNYPRPRQADFQPFGELQLRIALAARYTRGAEHCWHADNVHVAPDVHGAFKAVIETLGLRGGAVLVESPCAWGLLRLLRSFDIRVIELPLDETGSLDPIQLERLLLENNVGLVVLPSMFNSVRGSVRPLCNSRAVAKVLDRHQVWVLENDSHGALQFAADQTCLRHLIDPQRLIIIGTFEKCLGPEAPYGYLLCKNLDARWQAYFLLRAFELPPTRQRAIARLCSSGRLDKHLAQLREALAGHLQLMMQHLNEHTDGLLRYEVPEGGCGIWARSVYPVDMRQVFNRLLAKRIVITPGELFSLESLYGQHLWISYAIDWSRDPGELFSALAQALHLARQP | not soluble
MAHHHHHHMKAVSIRQVSAIIILDNNGKRIAVKYYNDQAPLKGENKLVPKNTNKDLVSNAFENTYNNLRTVEDQKLFESDITEKARKLGGDSSETEVLVLNKFTILYLLINDVSIYIVGEESDNEIILHEIMQTVQQCLDNVTNNQIGKKQLLDKLDSIYLILDEIADSGIIMETNPNVIINRLYMHESDLQEHTPLNQAISSAKENIIRSLLSGT | not soluble
MGSDKIHHHHHHMKHIEDNAGSERKPLAGAAKSVPAVAADKPYHRKNLREDLLRSALELTVERDGPAFSLRELAMREKVSHTAVYRHFSDKASLFAELSSEGFRQLALYQNRTIEAPDLPPLARLEQMGATYVRFAMENVGFFRVMFDVNLAGEWEEARKGERTAFGNLVGLVRQCQSEGDIIDADPRAIATYLVLSPHGLAHFNNIGHLTHLLQTSMTLDQLATQVFRLTLAPFLTKPYSEQDVRALVNSIF | not soluble
MGHHHHHHSHMTWKGGGGWMAAVTQGPGITWGSLLPSAVRQGEQKCKNTDVSIFLNWGVEGCLLTASKELTVEGPQCIPPLPESLSPLGPPGSQSSEETDPSCFNSCCCFSLWAGPGRGRAEQAPGGLQSQLDLAVSPAGSPADTGEVG | not soluble
MLQTLSTHLSSTSTSTTTPLLLLSKPFLSPSAKSQLSHSKPFNFPRTLKPISYYKPPMANILSKLGFGTRSPDPSTMDPTIPQGPDDDLPAPGQQFAQFGAGCFWGVELAFQRVPGVTKTEVGYTQGLLHNPTYEDVCTGTTNHNEVVRVQYDPKECSFDTLIDVLWARHDPTTLNRQGNDVGTQYRSGIYYYTPEQEKAAKESLERQQKLLNRKIVTEILPAKKFYRAEEYHQQYLAKGGRFGFMQSAEKGCNDPIRCYG | soluble
AQCEATIESNDAMQYDLKEMVVDKSCKQFTVHLKHVGKMAKSAMGHNWVLTKEADKEGVATDGMNAGLAQDYVKAGDTRVIAHTKVIGGGESDSVTFDVSKLTPGEAYAYFCSFPGHWAMHKGTLKLSN | soluble
MSLHAAAVGPSVLPDLREQVEQIIAEARRQGASACEVAVSLEQGLSTSVRQGEVETVEFNRDQGFGITLYAGQRKGSASTSATGEAAIRETVAAALAIARHTSEDECAGLADAALMARELPELDLYHPWSLSPEQAVERALACEAAAFAADKRVTKADGTTLNTHQGCRVYGNSHGFIGGYASTRHSLSCVMIAEGEGQMQRDYWYDVNRRGEALASAESIGRRAAERAASRLGARPVQTAEVPVLFAPEIAVGLFGHFLGAISGGSLYRKSSFLEGALGQRLFPEWLSIDERPHLVGALGSASFDSDGLATYAKPFVENGELVSYVLGTYSGRKLGLPSTANAGGVHNLFVSHGDEDQAALIRRMERGLLVTELMGQGVNLVTGDYSRGAAGYWVENGEIQFPVQEVTIAANLRDLFRRIVAVGKDIERRGNLHTGSVLVESMMVAGR | soluble
